Patent publication US20230137139A1, “BIOSYNTHESIS OF CANNABINOIDS AND C[…]” (priority 2020, published 2023)
Changes are numbered by the printed parent chain.

B1: t865714 (protein)
chain: MGNTTSIAGRDCLISALGGNSALAVFPNELLWTADVHEYNLNLPVTPAAITYPETAAQIAGVVKCASDYDYKVQARSGGHSFGNYGLGGADGAVVVDMKHFTQFSMDDETYEAVIGPGTTLNDVDIELYNNGKRAMAHGVCPTIKTGGHFTIGGLGPTARQWGLALDHVEEVEVVLANSSIVRASNTQNQDVFFAVKGAAANFGIVTEFKVRTEPAPGLAVQYSYTFNLGSTAEKAQFVKDWQSFISAKNLTRQFYNNMVIFDGDIILEGLFFGSKEQYDALGLEDHFAPKNPGNILVLTDWLGMVGHALEDTILKLVGNTPTWFYAKSLGFRQDTLIPSAGIDEFFEYIANHTAGTPAWFVTLSLEGGAINDVAEDATAYAHRDVLFWVQLFTVNPVGPISDTTYEFTDGLYDVLARAVPESVGHAYLGCPDPRMEDAQQKYWRTNLPRLQELKEELDPKNTFHHPQGVMPA
B2: t865694 (protein)
chain: B1 chain with A57E, I126A, T394M
B3: t865717 (protein)
chain: B1 chain with E112V, N122S, T394M
B4: t878465 (protein)
chain: B1 chain with N202S, T394M, P472A
modifications: expressed in S. cerevisiae strain
B5: t865746 (protein)
chain: B1 chain with V386A, T394M
modifications: expressed in S. cerevisiae strain
B6: t865737 (protein)
chain: B1 chain with V62I, T394M
B7: t865729 (protein)
chain: B1 chain with A57E, N131S, T394M
B8: t865726 (protein)
chain: B1 chain with T33D, N257S, T394M
B9: t865744 (protein)
chain: B1 chain with V260F, T394M
B10: t865743 (protein)
chain: B1 chain with V260M, T394M
B11: t865741 (protein)
chain: B1 chain with Y256M, T394M

Test system: CBCA, THCA, and CBDA production
Assay: In vivo TS activity assay, Example 2 protein engineering of A. niger CBCAS, cultures fed olivetolic acid
Assay type: cell-based, S. cerevisiae
Conditions: secondary screen
Description: (§1) An assay to detect TS activity was conducted as follows: each thawed glycerol stock of candidate CBCAS transformants was stamped into a well of YEP+4% dextrose media. Samples were incubated at 30° C. in a shaking incubator for 2 days. A portion of each of the resulting cultures was stamped into a well of YEP+4% galactose+1 mM olivetolic acid (FIG. 1 Structure 6a). Samples were incubated at 20° C. and shaken in a shaking incubator for 4 days. Every 24 hours during those 4 days, 2% galactose and 1 mM olivetolic acid were spiked into the cultures. Sodium citrate buffer adjusted to pH 5.5 was added to each well at a final concentration of 100 mM. Samples were incubated at 20° C. and shaken in a shaking incubator for 2 days. A portion of each of the resulting production cultures was stamped into a well of phosphate buffered saline (PBS). Optical measurements were taken on a plate reader, with absorbance measured at 600 nm and fluorescence at 528 nm with 485 nm excitation. Samples were incubated at 30° C. in a shaking incubator for 2 days. 100% methanol was stamped into the production cultures in half-height deepwell plates. Plates were heat sealed and frozen. Samples were then thawed for 30 min and spun down at 4° C. A portion of the supernatant was stamped into half-area 96 well plates. CBCA, THCA, and CBDA production in the samples was quantified via liquid chromatography-mass spectrometry (LC-MS).
(§2) To determine whether engineering of the A. niger CBCAS identified in Example 1 (corresponding to SEQ ID NO: 29 (with signal peptides); SEQ ID NO: 27 (without signal peptides and including an N-terminal methionine (UniProt accession No. A0A254UC34)); or SEQ ID NO: 25 (without signal peptides and without the N-terminal methionine)), could alter CBCAS substrate specificity, product specificity and/or amounts of products produced, point mutations were generated in A. niger CBCAS and the mutant versions of the protein were expressed in S. cerevisiae. A library containing 1047 A. niger CBCAS mutants was generated and screened. As in Example 1, each CBCAS mutant in the library, as well as the enzymes expressed by positive control strains, included an N-terminal MFalpha2 signal peptide (SEQ ID NO: 16) (with a methionine residue added at the N-terminus of the MFalpha2 signal peptide) and a C-terminal HDEL signal peptide (SEQ ID NO: 17).
Production of compounds of Formulae (9), (10), and/or (11), including compounds of Formulae (9a), (10a), and/or (11a) by strains expressing the mutated versions of A. niger CBCAS was quantified and compared to the production of the same compounds by a strain expressing wild-type A. niger CBCAS, a strain expressing a C. sativa THCAS, and a strain expressing a C. sativa CBDAS. The strains were screened using the same assay described in Example 1. Production of CBCA, THCA, and/or CBDA in the samples was quantified via LC-MS.
(§3) Of the original 1047 library members, 55 strains were elevated to a secondary screen to verify CBCA production. The experimental protocol for the secondary screen was identical to the primary screen, except that additional biological replicates were included per strain, and replicate production cultures for each strain were separately fed 1 mM boluses of olivetolic acid or 1 mM boluses of divaric acid. All strains were screened in quadruplicate.

| Molecule | average CBCA titer compared with the A. niger positive control |
| --- | --- |
| B1 | higher |
| B2 | higher |
| B3 | higher |
| B4 | higher |
| B5 | higher |
| B6 | higher |
| B7 | higher |
| B8 | higher |
| B9 | higher |
| B10 | higher |

Same assay, conditions: secondary screen, olivetolic acid (Table 8)

| Molecule | Mean CBCA | Mean CBDA | Mean THCA |
| --- | --- | --- | --- |
| B1 | 32311.22 µg/L | 6827.61 µg/L | 2172.74 µg/L |
| B11 | 15982.40 µg/L | 4419.64 µg/L | 957.33 µg/L |
| B2 | 43506.37 µg/L | 9126.46 µg/L | 2579.57 µg/L |
| B3 | 44204.43 µg/L | 9698.33 µg/L | 2648.36 µg/L |
| B4 | 41094.07 µg/L | 9826.17 µg/L | 2184.77 µg/L |
| B5 | 49195.03 µg/L | 9456.09 µg/L | 2882.16 µg/L |
| B6 | 53771.53 µg/L | 10699.35 µg/L | 2873.74 µg/L |
| B7 | 32213.25 µg/L | 8392.06 µg/L | 1856.57 µg/L |
| B8 | 41981.73 µg/L | 9985.90 µg/L | 2186.01 µg/L |
| B9 | 44305.26 µg/L | 7187.94 µg/L | 2369.76 µg/L |
| B10 | 58061.40 µg/L | 11245.27 µg/L | 3389.10 µg/L |

Same assay, conditions: share of terminal cannabinoid product profile

| Molecule | % CBCA | % CBDA | % THCA |
| --- | --- | --- | --- |
| B1 | 78.21% | 16.53% | 5.26% |
| B11 | 74.83% | 20.69% | 4.48% |
| B2 | 78.80% | 16.53% | 4.67% |
| B3 | 78.17% | 17.15% | 4.68% |
| B4 | 77.38% | 18.50% | 4.11% |
| B5 | 79.95% | 15.37% | 4.68% |
| B6 | 79.85% | 15.89% | 4.27% |
| B7 | 75.86% | 19.76% | 4.37% |
| B8 | 77.52% | 18.44% | 4.04% |
| B9 | 82.26% | 13.34% | 4.40% |
| B10 | 79.87% | 15.47% | 4.66% |

Test system: CBCVA, THCVA, and CBDVA production
Assay: In vivo TS activity assay, Example 2 protein engineering of A. niger CBCAS, cultures fed divaric acid
Assay type: cell-based, S. cerevisiae
Conditions: S. cerevisiae strains expressing A. niger CBCAS mutants, secondary screen, fed divaric acid
Description: as §1, §2, §3

| Molecule | Mean CBCVA | Mean CBDVA | Mean THCVA |
| --- | --- | --- | --- |
| B1 | 1775.08 µg/L | 0.00 µg/L | 1101.76 µg/L |
| B11 | 4388.54 µg/L | 0.00 µg/L | 2033.77 µg/L |
| B2 | 3069.69 µg/L | 0.00 µg/L | 1647.98 µg/L |
| B3 | 3668.51 µg/L | 0.00 µg/L | 1721.38 µg/L |
| B4 | 4314.23 µg/L | 0.00 µg/L | 2144.09 µg/L |
| B5 | 4751.98 µg/L | 0.00 µg/L | 2061.14 µg/L |
| B6 | 4271.01 µg/L | 0.00 µg/L | 2136.23 µg/L |
| B7 | 3685.70 µg/L | 0.00 µg/L | 1839.38 µg/L |
| B8 | 3644.48 µg/L | 0.00 µg/L | 1740.51 µg/L |
| B9 | 3752.20 µg/L | 0.00 µg/L | 2162.61 µg/L |
| B10 | 4972.60 µg/L | 0.00 µg/L | 2989.22 µg/L |

Same assay, conditions: secondary screen

| Molecule | average CBCVA titer compared with the A. niger positive control |
| --- | --- |
| B11 | higher |
| B3 | higher |
| B4 | higher |
| B5 | higher |
| B6 | higher |
| B7 | higher |
| B8 | higher |
| B9 | higher |
| B10 | higher |

Same assay, conditions: share of terminal cannabinoid product profile, fed divaric acid

| Molecule | % CBCVA | % CBDVA | % THCVA |
| --- | --- | --- | --- |
| B1 | 61.70% | 0.00% | 38.30% |
| B11 | 68.33% | 0.00% | 31.67% |
| B2 | 65.07% | 0.00% | 34.93% |
| B3 | 68.06% | 0.00% | 31.94% |
| B4 | 66.80% | 0.00% | 33.20% |
| B5 | 69.75% | 0.00% | 30.25% |
| B6 | 66.66% | 0.00% | 33.34% |
| B7 | 66.71% | 0.00% | 33.29% |
| B8 | 67.68% | 0.00% | 32.32% |
| B9 | 63.44% | 0.00% | 36.56% |
| B10 | 62.46% | 0.00% | 37.54% |
